Results published in patent publication US20190211099A1 (KING S COLLEGE LONDON, published 2019).

Biological target: T1, MUC1 carrying sialylated Core-1 glycans expressed by the breast cancer cell line T47D (UniProt P15941 24-1255, limits assumed, O-linked sialylated Core-1 glycans)
T1 construct: whole, on cells; also called MUC1-ST on T47D cells; T47D cells (MUC1-ST+ve)
Experiment: staining of FFPE T47D cells with human Siglec-9 IgG fusion, DAB

T1 sequence (P15941 24-1255 limits assumed, stated change not applied): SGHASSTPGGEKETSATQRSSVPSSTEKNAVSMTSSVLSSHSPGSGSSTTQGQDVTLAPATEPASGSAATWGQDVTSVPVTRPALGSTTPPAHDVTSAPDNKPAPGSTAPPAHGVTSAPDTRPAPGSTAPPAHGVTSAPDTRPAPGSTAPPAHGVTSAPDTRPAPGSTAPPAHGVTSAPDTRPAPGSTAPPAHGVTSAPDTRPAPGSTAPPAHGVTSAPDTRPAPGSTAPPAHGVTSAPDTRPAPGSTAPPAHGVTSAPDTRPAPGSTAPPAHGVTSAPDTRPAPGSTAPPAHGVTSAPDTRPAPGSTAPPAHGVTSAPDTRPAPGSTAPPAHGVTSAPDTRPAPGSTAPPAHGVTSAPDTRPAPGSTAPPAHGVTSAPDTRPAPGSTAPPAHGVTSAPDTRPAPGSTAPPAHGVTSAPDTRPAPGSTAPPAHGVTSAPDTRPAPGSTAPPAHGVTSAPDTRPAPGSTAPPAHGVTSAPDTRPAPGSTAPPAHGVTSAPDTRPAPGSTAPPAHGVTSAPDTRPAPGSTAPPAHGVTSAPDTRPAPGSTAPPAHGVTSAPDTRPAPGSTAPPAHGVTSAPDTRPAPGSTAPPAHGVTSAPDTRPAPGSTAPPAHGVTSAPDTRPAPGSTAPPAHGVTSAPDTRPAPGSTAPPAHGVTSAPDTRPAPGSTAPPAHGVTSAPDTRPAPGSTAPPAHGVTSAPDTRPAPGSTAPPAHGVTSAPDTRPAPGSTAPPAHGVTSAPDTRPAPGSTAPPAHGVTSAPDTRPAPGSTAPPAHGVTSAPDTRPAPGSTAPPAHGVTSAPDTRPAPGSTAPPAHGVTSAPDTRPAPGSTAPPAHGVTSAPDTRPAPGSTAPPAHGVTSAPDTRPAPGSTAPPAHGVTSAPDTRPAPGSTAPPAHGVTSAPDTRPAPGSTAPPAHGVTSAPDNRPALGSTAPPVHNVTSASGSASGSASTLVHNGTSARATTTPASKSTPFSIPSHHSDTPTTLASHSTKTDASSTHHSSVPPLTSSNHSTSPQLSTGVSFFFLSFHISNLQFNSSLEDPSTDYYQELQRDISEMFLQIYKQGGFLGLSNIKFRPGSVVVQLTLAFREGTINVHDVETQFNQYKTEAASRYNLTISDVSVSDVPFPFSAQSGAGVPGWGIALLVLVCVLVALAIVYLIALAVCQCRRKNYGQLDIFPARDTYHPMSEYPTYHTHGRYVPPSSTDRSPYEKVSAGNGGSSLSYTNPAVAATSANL

B1: Recombinant human Siglec-9 fusion protein (Fc fusion)
chain: TSKLLTMQSSVTVQEGLCVHVPCSFSYPSHGWIYPGPVVHGYWFREGANTDQDAPVATNNPARAVWEETRDRFHLLGDPHTKNCTLSIRDARRSDAGRYFFRMEKGSIKWNYKHHRLSVNVTALTHRPNILIPGTLESGCPQNLTCSVPWACEQGTPPMISWIGTSVSPLDPSTTRSSVLTLIPQPQDHGTSLTCQVTFPGASVTTNKTVHLNVSYPPQNLTMTVFQGDGTVSTVLGNGSSLSLPEGQSLRLVCAVDAVDSNPPARLSLSWRGLTLCPSQPSNPGVLELPWVHLRDAAEFTCRAQNPLGSQQVYLNVSLQSKATSGVTQG
notes: also called human Siglec-9 IgG fusion; recombinant Siglec 9; not shown: human IgG part of the fusion (captured with mouse anti human IgG)
**Q.** Does B1 bind?
**A.** binds
